Reference: patent publication US20160009800A1

How the values were obtained:
[1] = target: human insulin receptor (human) (UniProt P06213); assay: FACS, serum-starved IM-9 cells, no insulin
[2] = target: human insulin receptor complexed with human insulin (human) (UniProt P06213); assay: KinExA, affinity with insulin against affinity without insulin
[3] = target: human insulin receptor (human) (UniProt P06213); assay: KinExA antibody depletion by hINSR8-CHOK1 cells, without insulin
[4] = target: human insulin receptor complexed with human insulin (human) (UniProt P06213); assay: FACS, serum-starved IM-9 cells pre-exposed to human insulin
[5] = target: human insulin receptor complexed with human insulin (human) (UniProt P06213); assay: KinExA antibody depletion by hINSR8-CHOK1 cells, with 175 nM insulin
[6] = target: human insulin receptor (human) (UniProt P06213); assay: FACS, serum-starved IM-9 cells; insulin state of the control not stated

MFI [1] | Fold Improvement with Insulin [2] [fold] | Kd [3] [nM] | MFI [4] | Kd [5] [nM] | MFI [6] | Substance
18.4 | 3 | 0.48 | 34.9 | 0.16 | – | 83-7 (antibody)
– | – | – | – | – | 3.83 | Neg Control
